In the supplement of paper PMC5998384:

Legend:
HeLa Kyoto [1] = experiment: solubility change mitosis vs G1/S (difference of NP-40 vs SDS log2 ratios) (log2 ratio difference); higher = more soluble in mitosis
HeLa Kyoto [2] = experiment: solubility in G1/S (NP-40 vs SDS abundance) (log2 ratio); higher = more soluble; conditions: cell cycle stage: G1/S
HeLa Kyoto [3] = experiment: thermal stability score vs G1/S (z-score of summed log2 fold changes over temperatures); higher = more thermally stable than in G1/S
HeLa Kyoto [4] = experiment: melting temperature (median over replicates), in situ; higher = more thermally stable
[5] = cell cycle stage: early G1 (4.5 h after nocodazole release)
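For melting temperature (median over replicates), in situ in this document: HeLa Kyoto cells synchronized by double thymidine or nocodazole block, proteins quantified by TMT10plex mass spectrometry, three independent biological replicates.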
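For solubility change mitosis vs G1/S (difference of NP-40 vs SDS log2 ratios) in this document: synchronized HeLa Kyoto cells (double thymidine block for G1/S, nocodazole release for mitosis), protein amounts in NP-40 versus SDS lysates quantified by mass spectrometry, three biological replicates.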
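For solubility in G1/S (NP-40 vs SDS abundance) in this document: HeLa Kyoto cells arrested at G1/S by double thymidine block, proteins quantified by TMT10plex mass spectrometry in mild NP-40 versus SDS extracts, three biological replicates.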
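For thermal stability score vs G1/S (z-score of summed log2 fold changes over temperatures) in this document: synchronized HeLa Kyoto cells, proteins quantified by TMT10plex mass spectrometry, three biological replicates, mitosis taken 0.5 h after nocodazole release, G1/S directly after double thymidine block.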

| Sequence | solubility change mitosis (log2) (HeLa Kyoto [1]) | solubility in G1/S (log2) (HeLa Kyoto [2]) | thermal stability score (HeLa Kyoto [3]; [5]) | thermal stability score (HeLa Kyoto [3]; cell cycle stage: mitosis) | melting temperature (HeLa Kyoto [4]; cell cycle stage: G1/S) [°C] | melting temperature (HeLa Kyoto [4]; cell cycle stage: mitosis) [°C] |
| --- | --- | --- | --- | --- | --- | --- |
| MGLPEPGPLRLLALLLLLLLLLLLQLQHLAAAAADPLLGGQGPAKDCEKDQFQCRNERCIPSVWRCDEDDDCLDHSDEDDCPKKTCADSDFTCDNGHCIHERWKCDGEEECPDGSDESEATCTKQVCPAEKLSCGPTSHKCVPASWRCDGEKDCEGGADEAGCATLCAPHEFQCGNRSCLAAVFVCDGDDDCGDGSDERGCADPACGPREFRCGGDGGGACIPERWVCDRQFDCEDRSDEAAELCGRPGPGATSAPAACATASQFACRSGECVHLGWRCDGDRDCKDKSDEADCPLGTCRGDEFQCGDGTCVLAIKHCNQEQDCPDGSDEAGCLQGLNECLHNNGGCSHICTDLKIGFECTCPAGFQLLDQKTCGDIDECKDPDACSQICVNYKGYFKCECYPGYEMDLLTKNCKAAAGKSPSLIFTNRHEVRRIDLVKRNYSRLIPMLKNVVALDVEVATNRIYWCDLSYRKIYSAYMDKASDPKEQEVLIDEQLHSPEGLAVDWVHKHIYWTDSGNKTISVATVDGGRRRTLFSRNLSEPRAIAVDPLRGFMYWSDWGDQAKIEKSGLNGVDRQTLVSDNIEWPNGITLDLLSQRLYWVDSKLHQLSSIDFSGGNRKTLISSTDFLSHPFGIAVFEDKVFWTDLENEAIFSANRLNGLEISILAENLNNPHDIVIFHELKQPRAPDACELSVQPNGGCEYLCLPAPQISSHSPKYTCACPDTMWLGPDMKRCYRAPQSTSTTTLASTMTRTVPATTRAPGTTVHRSTYQNHSTETPSLTAAVPSSVSVPRAPSISPSTLSPATSNHSQHYANEDSKMGSTVTAAVIGIIVPIVVIALLCMSGYLIWRNWKRKNTKSMNFDNPVYRKTTEEEDEDELHIGRTAQIGHVYPAAISSFDRPLWAEPCLGETREPEDPAPALKELFVLPGEPRSQLHQLPKNPLSELPVVKSKRVALSLEDDGLP [LRP8] | -0.0602 | 0.0581 | -3.43 | -3.53 | 55.6 | 56.7 |
| MGLTKQYLRYVASAVFGVIGSQKGNIVFVTLRGEKGRYVAVPACEHVFIWDLRKGEKILILQGLKQEVTCLCPSPDGLHLAVGYEDGSIRIFSLLSGEGNVTFNGHKAAITTLKYDQLGGRLASGSKDTDIIVWDVINESGLYRLKGHKDAITQALFLREKNLLVTSGKDTMVKWWDLDTQHCFKTMVGHRTEVWGLVLLSEEKRLITGASDSELRVWDIAYLQEIEDPEEPDPKKIKGSSPGIQDTLEAEDGAFETDEAPEDRILSCRKAGSIMREGRDRVVNLAVDKTGRILACHGTDSVLELFCILSKKEIQKKMDKKMKKARKKAKLHSSKGEEEDPEVNVEMSLQDEIQRVTNIKTSAKIKSFDLIHSPHGELKAVFLLQNNLVELYSLNPSLPTPQPVRTSRITIGGHRSDVRTLSFSSDNIAVLSAAADSIKIWNRSTLQCIRTMTCEYALCSFFVPGDRQVVIGTKTGKLQLYDLASGNLLETIDAHDGALWSMSLSPDQRGFVTGGADKSVKFWDFELVKDENSTQKRLSVKQTRTLQLDEDVLCVSYSPNQKLLAVSLLDCTVKIFYVDTLKFFLSLYGHKLPVICMDISHDGALIATGSADRNVKIWGLDFGDCHKSLFAHDDSVMYLQFVPKSHLFFTAGKDHKIKQWDADKFEHIQTLEGHHQEIWCLAVSPSGDYVVSSSHDKSLRLWERTREPLILEEEREMEREAEYEESVAKEDQPAVPGETQGDSYFTGKKTIETVKAAERIMEAIELYREETAKMKEHKAICKAAGKEVPLPSNPILMAYGSISPSAYVLEIFKGIKSSELEESLLVLPFSYVPDILKLFNEFIQLGSDVELICRCLFFLLRIHFGQITSNQMLVPVIEKLRETTISKVSQVRDVIGFNMAGLDYLKRECEAKSEVMFFADATSHLEEKKRKRKKREKLILTLT [WDR3] | 0.614 | -1.64 | 2.25 | 3.44 | 50.2 | 50.9 |
| MGNSALRAHVETAQKTGVFQLKDRGLTEFPADLQKLTSNLRTIDLSNNKIESLPPLLIGKFTLLKSLSLNNNKLTVLPDEICNLKKLETLSLNNNHLRELPSTFGQLSALKTLSLSGNQLGALPPQLCSLRHLDVMDLSKNQIRSIPDSVGELQVIELNLNQNQISQISVKISCCPRLKILRLEENCLELSMLPQSILSDSQICLLAVEGNLFEIKKLRELEGYDKYMERFTATKKKFA [LRRC57] | 0.00239 | 0.266 | -0.373 | -0.56 | 53.2 | 53.6 |
| MGNVLAASSPPAGPPPPPAPALVGLPPPPPSPPGFTLPPLGGSLGAGTSTSRSSERTPGAATASASGAAEDGACGCLPNPGTFEECHRKCKELFPIQMEGVKLTVNKGLSNHFQVNHTVALSTIGESNYHFGVTYVGTKQLSPTEAFPVLVGDMDNSGSLNAQVIHQLGPGLRSKMAIQTQQSKFVNWQVDGEYRGSDFTAAVTLGNPDVLVGSGILVAHYLQSITPCLALGGELVYHRRPGEEGTVMSLAGKYTLNNWLATVTLGQAGMHATYYHKASDQLQVGVEFEASTRMQDTSVSFGYQLDLPKANLLFKGSVDSNWIVGATLEKKLPPLPLTLALGAFLNHRKNKFQCGFGLTIG [TOMM40] | -0.17 | 0.262 | -1.53 | -3.48 | 62.9 | 61.7 |
| MGPAPAGEQLRGATGEPEVMEPALEGTGKEGKKASSRKRTLAEPPAKGLLQPVKLSRAELYKEPTNEELNRLRETEILFHSSLLRLQVEELLKEVRLSEKKKDRIDAFLREVNQRVVRVPSVPETELTDQAWLPAGVRVPLHQVPYAVKGCFRFLPPAQVTVVGSYLLGTCIRPDINVDVALTMPREILQDKDGLNQRYFRKRALYLAHLAHHLAQDPLFGSVCFSYTNGCHLKPSLLLRPRGKDERLVTVRLHPCPPPDFFRPCRLLPTKNNVRSAWYRGQSPAGDGSPEPPTPRYNTWVLQDTVLESHLQLLSTILSSAQGLKDGVALLKVWLRQRELDKGQGGFTGFLVSMLVVFLVSTRKIHTTMSGYQVLRSVLQFLATTDLTVNGISLCLSSDPSLPALADFHQAFSVVFLDSSGHLNLCADVTASTYHQVQHEARLSMMLLDSRADDGFHLLLMTPKPMIRAFDHVLHLRPLSRLQAACHRLKLWPELQDNGGDYVSAALGPLTTLLEQGLGARLNLLAHSRPPVPEWDISQDPPKHKDSGTLTLGLLLRPEGLTSVLELGPEADQPEAAKFRQFWGSRSELRRFQDGAIREAVVWEAASMSQKRLIPHQVVTHLLALHADIPETCVHYVGGPLDALIQGLKETSSTGEEALVAAVRCYDDLSRLLWGLEGLPLTVSAVQGAHPVLRYTEVFPPTPVRPAFSFYETLRERSSLLPRLDKPCPAYVEPMTVVCHLEGSGQWPQDAEAVQRVRAAFQLRLAELLTQQHGLQCRATATHTDVLKDGFVFRIRVAYQREPQILKEVQSPEGMISLRDTAASLRLERDTRQLPLLTSALHGLQQQHPAFSGVARLAKRWVRAQLLGEGFADESLDLVAAALFLHPEPFTPPSSPQVGFLRFLFLVSTFDWKNNPLFVNLNNELTVEEQVEIRSGFLAARAQLPVMVIVTPQDRKNSVWTQDGPSAQILQQLVVLAAEALPMLEKQLMDPRGPGDIRTVFRPPLDIYDVLIRLSPRHIPRHRQAVDSPAASFCRGLLSQPGPSSLMPVLGYDPPQLYLTQLREAFGDLALFFYDQHGGEVIGVLWKPTSFQPQPFKASSTKGRMVMSRGGELVMVPNVEAILEDFAVLGEGLVQTVEARSERWTV [NOL6] | 0.851 | -1.58 | -1.55 | -1.79 | 52.4 | 51.4 |
| MGPRKKSVKTCIMNNEIPEEMTADETKDYMNQLSHEVLCHIFRYLPLQDIMCMECLSRKLKEAVTLYLRVVRVVDLCAGRWWEYMPSGFTDASFLTLLKKMPDVEQLYGLHPRYLERRRVRGHEAFSIPGVLEALQACPNLVGVETSHLELVESIWTYMPHVHILGKFRNRNGAFPIPPENKLKIPIGAKIQTLHLVGVNVPEIPCIPMLRHLYMKWVRLTKPQPFKDFLCISLRTFVMRNCAGPTNSLKYVPLVTGLASARNLEHLEMVRVPFLGGLIQHVVEDSWRSGGFRNLHTIVLGACKNALEVDLGYLIITAARRLHEVRIQPSLTKDGVFSALKMAELEFPQFETLHLGYVDEFLLQSRMANADLVKYGLADVVENPGIITDIGMKAVNEVFSCIKYLAIYNCPHLHNPYNWISDHSRWTRLVDINLVRCHALKLDSFGQFIELLPSLEFISLDQMFREPPKGCARVGLSAGTGIGVSSALVSNQNSNNDDNNAQNNNANIHDNNHHHPDDSDEENDFRQDLQPGEQQFAADALNEMEDIVQEDGEVVAESGNNTPAHSQAIIPVDVDEEQAGPSGLQRVVKPTSITVHDSESDDEEDSLELQEVWIPKNGTRRYSEREEKTGESVQSRELSVSGKGKTPLRKRYNSHQMGQSKQFPLEESSCEKGCQVTSEQIKADMKAARDIPEKKKNKDVYPSCSSTTASTVGNSSSHNTASQSPDFVRTVNSGGSSEPSPTEVDVSRQCACSPGGSEDSEAMEEGDAESSVCPRCCCHRPQESQRRTSRCSDEERPSTSRACVVNGPDGTRSAFSFRTLPQGGSSGPAHDERTNGSGSGATGEDRRGSSQPESCDVQSNEDYPRRPLTRARSRLSHVLLVSESEVAKTKPRHAMKRKRTADKSTSTSDPVIEDDHVQVLVLKSKNLVGVTMTNCGITDLVLKDCPKMMFIHATRCRVLKHLKVENAPIVNRFDYAQCKKLNMDQVLDQILRMPPERNRIIYLRPMQQVDTLTLEQKLFSGPYPYHICIIHEFSNPPNVRNKVRIRSWMDTIANINQELIKYEFFPEATRSEEDLKKYPKYPWGREIYTLEGVVDGAPYSMISDFPWLRSLRAAEPNSFARYDFEDDEESTIYAPRRKGQLSADICMETIGEEISEMRQMKKGVFQRVVAIFIHYCDVNGEPVEDDYI [FBXO38] | -0.0833 | -0.338 | -0.768 | -0.745 | 51.6 | 51.3 |
| MGPRSRERRAGAVQNTNDSSALSKRSLAARGYVQDPFAALLVPGAARRAPLIHRGYYVRARAVRHCVRAFLEQIGAPQAALRAQILSLGAGFDSLYFRLKTAGRLARAAVWEVDFPDVARRKAERIGETPELCALTGPFERGEPASALCFESADYCILGLDLRQLQRVEEALGAAGLDAASPTLLLAEAVLTYLEPESAAALIAWAAQRFPNALFVVYEQMRPQDAFGQFMLQHFRQLNSPLHGLERFPDVEAQRRRFLQAGWTACGAVDMNEFYHCFLPAEERRRVENIEPFDEFEEWHLKCAHYFILAASRGDTLSHTLVFPSSEAFPRVNPASPSGVFPASVVSSEGQVPNLKRYGHASVFLSPDVILSAGGFGEQEGRHCRVSQFHLLSRDCDSEWKGSQIGSCGTGVQWDGRLYHTMTRLSESRVLVLGGRLSPVSPALGVLQLHFFKSEDNNTEDLKVTITKAGRKDDSTLCCWRHSTTEVSCQNQEYLFVYGGRSVVEPVLSDWHFLHVGTMAWVRIPVEGEVPEARHSHSACTWQGGALIAGGLGASEEPLNSVLFLRPISCGFLWESVDIQPPITPRYSHTAHVLNGKLLLVGGIWIHSSSFPGVTVINLTTGLSSEYQIDTTYVPWPLMLHNHTSILLPEEQQLLLLGGGGNCFSFGTYFNPHTVTLDLSSLSAGQ [LCMT2] | -0.199 | -0.0889 | -0.211 | -0.346 | 51.2 | 50.7 |
| MGQIEWAMWANEQALASGLILITGGIVATAGRFTQWYFGAYSIVAGVFVCLLEYPRGKRKKGSTMERWGQKYMTAVVKLFGPFTRNYYVRAVLHLLLSVPAGFLLATILGTACLAIASGIYLLAAVRGEQWTPIEPKPRERPQIGGTIKQPPSNPPPRPPAEARKKPSEEEAAVAAGGPPGGPQVNPIPVTDEVV [CYBA] | -0.167 | 0.005 | -0.561 | -1.21 | 54.8 | 54 |
